Results: patent US20250134962A1 (published 2025)
Read-outs that look alike come from different tables or passages of the source.

Columns and labels:
GPC3 [1] = target: T1, GPC3 (UniProt P51654 25-554); assay: flow cytometry; HepG2 cells
GPC3 [2] = target: T1, GPC3; assay: flow cytometry; HepG2 cells; remark: listed apart in the source

EC50 (GPC3 [1]): 0.529 nM
EC50 (GPC3 [2]): 0.529 nM
B1: Codrituzumab (antibody, V domains shown)
VH: QVQLVQSGAEVKKPGASVKVSCKASGYTFTDYEMHWVRQAPGQGLEWMGALDPKTGDTAYSQKFKGRVTLTADKSTSTAYMELSSLTSEDTAVYYCTRFYSYTYWGQGTLVTVSS
VL: DVVMTQSPLSLPVTPGEPASISCRSSQSLVHSNRNTYLHWYLQKPGQSPQLLIYKVSNRFSGVPDRFSGSGSGTDFTLKISRVEAEDVGVYYCSQNTHVPPTFGQGTKLEIKR
